Results: patent US20230034906A1 (TRINOMAB BIOTECH, published 2023)

Target: T1, homologous sequence of gB glycoprotein of 56 virus strains (gB_Con. Strain) (human cytomegalovirus (homologous …, UniProt P06473 25-699))
T1 construct: C-terminal tags are part of the entry
T1 chain: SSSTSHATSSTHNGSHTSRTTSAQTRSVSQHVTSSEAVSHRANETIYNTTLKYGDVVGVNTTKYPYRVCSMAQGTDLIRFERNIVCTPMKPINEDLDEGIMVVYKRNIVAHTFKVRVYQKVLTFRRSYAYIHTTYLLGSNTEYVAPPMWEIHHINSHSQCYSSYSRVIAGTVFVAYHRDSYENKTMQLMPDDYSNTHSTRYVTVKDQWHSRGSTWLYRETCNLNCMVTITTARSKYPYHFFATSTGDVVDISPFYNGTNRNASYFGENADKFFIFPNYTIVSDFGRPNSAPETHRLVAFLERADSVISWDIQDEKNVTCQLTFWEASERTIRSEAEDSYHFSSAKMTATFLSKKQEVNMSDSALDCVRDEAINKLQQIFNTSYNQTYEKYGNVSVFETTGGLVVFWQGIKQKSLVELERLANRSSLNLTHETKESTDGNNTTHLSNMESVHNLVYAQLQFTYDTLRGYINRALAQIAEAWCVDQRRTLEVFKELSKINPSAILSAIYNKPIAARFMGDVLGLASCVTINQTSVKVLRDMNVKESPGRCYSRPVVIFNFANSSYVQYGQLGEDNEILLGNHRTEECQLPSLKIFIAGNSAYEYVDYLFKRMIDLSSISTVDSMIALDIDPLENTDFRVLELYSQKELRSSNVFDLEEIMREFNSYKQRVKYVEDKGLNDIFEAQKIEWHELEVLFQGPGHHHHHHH
Assay: ELISA, HEK293 culture supernatant on gB

B1: TRN1019 (antibody, V domains shown)
VH: QVQLVQSGAEVKKPGESLKISCKGSGYTFTNYWIGWVRQMPGAGLEWMAIIFPRDSYSAYSPSFQGRVTISVDKSISTAYLHWSSLEASDTAVYYCAIYNDLRSGNSWGQGTPLIVSS
VL: DIQMTQSPSSLSASVGDRVTITCRASQSITKYLNWYQQKPGRAPKLLIHTTSTLQSGVPSRFSGSGSGTDFTLTISSLQLEDFGTYYCQQSFSTLWTFGQGTKLDIKR
notes: Fully human antibody; kappa light chain
binding result: binds
